Test results reported in IntAct's records for PubMed 31695625.

Key:
[1] = molecular target: T1, SLC2A9, Q9NRM0-1
T1 sequence: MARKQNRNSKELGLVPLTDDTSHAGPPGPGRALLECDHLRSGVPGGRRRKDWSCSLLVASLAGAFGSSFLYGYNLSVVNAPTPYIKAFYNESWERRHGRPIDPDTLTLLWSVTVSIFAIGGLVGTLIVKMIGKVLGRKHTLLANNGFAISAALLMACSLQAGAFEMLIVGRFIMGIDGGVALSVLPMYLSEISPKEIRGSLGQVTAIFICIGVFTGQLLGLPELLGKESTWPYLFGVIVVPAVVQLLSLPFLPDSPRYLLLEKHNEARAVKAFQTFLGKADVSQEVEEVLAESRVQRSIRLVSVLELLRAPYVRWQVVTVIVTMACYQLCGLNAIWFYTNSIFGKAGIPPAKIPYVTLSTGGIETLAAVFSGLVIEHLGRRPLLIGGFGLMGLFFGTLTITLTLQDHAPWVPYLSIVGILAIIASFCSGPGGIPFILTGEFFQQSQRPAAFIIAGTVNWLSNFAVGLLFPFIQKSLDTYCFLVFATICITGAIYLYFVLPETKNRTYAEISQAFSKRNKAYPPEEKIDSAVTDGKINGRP

[2] = molecular target: T2, SLC2A9, Q9NRM0-2
T2 sequence: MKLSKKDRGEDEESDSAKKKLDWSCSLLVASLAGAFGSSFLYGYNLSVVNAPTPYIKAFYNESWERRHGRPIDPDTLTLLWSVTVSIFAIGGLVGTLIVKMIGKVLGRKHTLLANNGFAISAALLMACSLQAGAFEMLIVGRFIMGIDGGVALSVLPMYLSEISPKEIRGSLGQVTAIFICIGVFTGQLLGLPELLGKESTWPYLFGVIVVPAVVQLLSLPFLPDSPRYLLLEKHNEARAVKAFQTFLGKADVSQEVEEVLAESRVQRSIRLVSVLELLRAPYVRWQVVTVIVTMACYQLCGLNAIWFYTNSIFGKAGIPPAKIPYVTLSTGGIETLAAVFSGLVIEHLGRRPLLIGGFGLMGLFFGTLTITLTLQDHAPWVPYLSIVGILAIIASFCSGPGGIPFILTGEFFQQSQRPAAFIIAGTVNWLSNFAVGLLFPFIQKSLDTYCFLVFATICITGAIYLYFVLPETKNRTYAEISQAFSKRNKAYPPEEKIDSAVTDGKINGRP

Row | Substance | effect of a mutation on the interaction [1] | effect of a mutation on the interaction [2]
1 | Integral membrane protein 2B (Homo sapiens) (from UniProt Q9Y287) N170Q | decreasing interaction strength | 
2 | Integral membrane protein 2B (Homo sapiens) (from UniProt Q9Y287) E261A | with no effect | with no effect
